According to paper PMC10765591, “Structural analysis and molecular substrate recognition properties of Arabidopsis thaliana ornithine transcarbamylase, the molecular target of phaseolotoxin produced by Pseudomonas syringae” (Frontiers in Plant Science, 2023):

Target: Arabidopsis thaliana ornithine transcarbamylase (Arabidopsis thaliana) (UniProt O50039)
Test: crystal structure; AtOTC co-crystallised with 20 mM ornithine or carbamoyl phosphate; HEPES 0.1 M pH 6.0, 0.3 M Li2SO4, PEG 3350, about 20°C; three subunits around a non-crystallographic three-fold axis

Chain of Arabidopsis thaliana ornithine transcarbamylase (O50039 53-375): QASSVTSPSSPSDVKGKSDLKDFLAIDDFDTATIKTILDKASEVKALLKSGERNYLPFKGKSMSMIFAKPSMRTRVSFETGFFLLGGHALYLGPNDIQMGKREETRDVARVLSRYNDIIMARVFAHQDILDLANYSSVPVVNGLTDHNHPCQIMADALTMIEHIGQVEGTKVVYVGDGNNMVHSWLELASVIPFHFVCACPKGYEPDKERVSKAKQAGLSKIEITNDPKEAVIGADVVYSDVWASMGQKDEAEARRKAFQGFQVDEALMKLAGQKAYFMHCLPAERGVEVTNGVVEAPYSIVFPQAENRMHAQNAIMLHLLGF

In the case of “Arabidopsis thaliana ornithine transcarbamylase (from UniProt O50039 53-375) (enzyme)”, the stoichiometry N is reported as 3.
